Type in all cases: in vivo
Test [1] relates to A431 human tumour xenografts. As to the kind of experiment: A431 xenograft efficacy study (Study A). Particulars: 3.19.3 10 mg/kg 2×wk i.p., VTKI 3 mg/kg/day p.o. As to the method:
(§1) The anti-tumor activity of monoclonal antibody 3.19.3 in combination with the VTKI 4-(4-fluoro-2-methylindol-5-yloxy)-6-methoxy-7-(3-piperidinopropoxy)quinazoline was evaluated in a xenograft model of human skin epidermoid carcinoma (Study A) and in a model of colorectal cancer (Study B) by using the A431 and Colo205 cell lines respectively.
(§2) A431 and Colo205 cells were cultured in flasks as routine until the cells reached sub-confluence. Immunodeficient 6-8 week old female mice (Ncr/nu/nu) were used. The cells were harvested and suspended in Matrigel. A cell suspension containing 1 to 5×10^6 cells was injected subcutaneously into the flank of the mice. The mice were randomized into different groups, each containing 10-15 mice. When the tumour volume reached 200 mm^3, the mice were randomized in each groups and the treatments were initiated. mAb 3.19.3 10 mg/kg in saline was injected intraperitoneally, twice per week for 2 weeks. 4-(4-fluoro-2-methylindol-5-yloxy)-6-methoxy-7-(3-piperidinopropoxy)quinazoline was treated peroral daily at doses ranging from 1.5 to 6 mg/kg in water containing 1% Tween80. The dimensions of each tumor were measured twice per week. The volume of the tumor was calculated as: Volume=Length×(Width)^2×0.5 (cm^3).

Test [2] concerns human Colo205 colon tumour xenografts. As to the kind of experiment: Colo205 xenograft efficacy study (Study B). Particulars: 3.19.3 10 mg/kg 2×wk i.p., VTKI 6 mg/kg/day p.o. As to the method:
as §1, §2

Test [3] deals with human HT29 colon tumour xenografts. As to the kind of experiment: HT29 xenograft efficacy study. Conditions: AZD2171 1.5 mg/kg/day p.o. d 0-27, 3.19.3 10 mg/kg i.p. day 0, 3, 7, 10, 14, 17, 21 and 24. On the procedure: The efficacy of mAb 3.19.3 in combination with AZD2171 was evaluated in human HT29 xenografts. Briefly, 5×10^6 HT29 tumour cells in 0.1 ml of serum free Roswell Park Memorial Institute (RPMI)-1640 medium were injected subcutaneously into the flanks of 60 athymic (nu/nu genotype) mice. When tumours reached a volume of 200 to 400 mm^3 (9-10 days), mice were randomized into groups (8 per group) and treatment started (day 0).
The control group (Group 1) received a daily oral (p.o.) administration of vehicle only for 28 consecutive days (day 0-27). Group 2 treatment consisted of a daily p.o. administration of AZD2171 alone at 1.5 mg/kg/administration for 28 consecutive days (day 0-27). AZD2171 was prepared as a suspension in 1% polysorbate 80 (i.e. a 1% (v/v) solution of polyoxyethylene (20) sorbitan mono-oleate in deionised water). […]
Tumour volumes (mm^3) were assessed at least twice weekly by bilateral Vernier caliper measurement and, taking length to be the longest diameter across the tumor and width the corresponding perpendicular, calculated using the formula (π/6)×(length×width)×√ (length×width). Growth inhibition from the start of treatment was assessed by comparison of the differences in tumor volume between control and treated groups. […] For all mice, the tumours were excised and weights recorded upon termination of the study.

Test [4] has as its system human SW620 colon tumour xenografts. As to the kind of experiment: SW620 xenograft efficacy study. Particulars: 3.19.3 10 mg/kg 2×wk i.p., DC101 15 mg/kg 2×wk i.p., 3 weeks. On the procedure:
The anti-tumor activity of mAb 3.19.3 was evaluated in combination with monoclonal antibody DC101 which is directed against VEGFR-2/KDR, in the SW620 colorectal cancer xenograft model. Briefly, SW620 cells were cultured under routine tissue culture conditions in flasks until the cells reached sub-confluence. Immunodeficient 8-10 week old NCr nude mice were used, and cell suspensions containing approximately 1×10^6 cells were injected subcutaneously into the right flank of the mice. After the tumour volumes reached 100 mm^3, the mice were randomized in groups and the treatments were initiated. The mAb 3.19.3 10 mg/kg in saline was injected intraperitoneally, twice per week for 3 weeks. The mAb DC101 15 mg/kg in saline was also injected intraperitoneally, following the same schedule of twice per week for 3 weeks. The dimensions of each tumor were measured twice per week. The volume of the tumor was calculated as: Volume=Length×(Width)^2×0.5 (cm^3).

B1: mAb 3.19.3: fully human anti-Angiopoietin-2 monoclonal antibody, variable regions SEQ ID NO: 5-8; also binds Angiopoietin-1 (antibody, V domains shown)
VH: QVQLVESGGGVVQPGRSLRLSCAASGFTFTNYGMHWGRQAPGKGLEWVAVISHDGNNKYYVDSVKGRFTISRDNSKNTLYLQMNSLRAEDTAVYYCAREGIDFWSGLNWFDPWGQGTLVTVSSA
VL: EIVLTQSPGTLSLSPGERATLSCRASQSITGSYLAWYQQKPGQAPRLLICGASSWATGIPDRFSGSGSGTDFTLTISRLEPEDFAVYYCQQYSSSPITFGQGTRLEIKR
In general, % inhibition refers to the drop in the measured response relative to a control, in per cent. In the case of B1, the “% tumor growth inhibition” value in test [1] was 46%. For the same molecule, the “% inhibition” value in test [2] was determined as 35%. Further, the “Inhibition of Control Tumour Growth Day 28” value in test [3] amounted to 40%. Besides, the tumour inhibition in test [4] came to 48%.

The values above are taken from patent US20090123474A1, “COMBINATION OF ANGIOPOIETIN-2 ANTAGONIST AND OF VEGF-A, KDR AND/OR FLTL ANTAGONIST FOR TREATING CANCER” (ASTRAZENECA AB, priority 2005, published 2009).
